The values below come from patent publication US20260042850A1 (LOCKBODY THERAPEUTICS, published 2026).

Positions count from the first letter of the chain named. Some results are limits rather than exact numbers.

Sequences and labels used below:
B1: MH10 (antibody, IgG4, V domains shown)
VH: QVQLVQSGAEVKKPGASVKVSCKASGYTFTSYAMHWVRQAPGQGLEWMGWINPSGGSTSYAQKFQGRVTMTRDTSTSTVYMELSSLRSEDTAVYYCARQEITTEFDYWGQGTLVTVSS
VL: EIVLTQSPGTLSLSPGERATLSCRASQSVSSYANSYLHWYQQKPGQAPRLLIYRGSTRESGIPDRFSGSGSGTDFTLTISRLEPEDFAVYYCQQSKSEPLTFGGGTKVEIK
B2: MH7 (antibody, human IgG4, V domains shown)
VH: B1 VH with A33T, W50I
VL: B1 VL
B3: MH7-1 (antibody, human IgG4, V domains shown)
VH: B1 VH with A33T, W50I
VL: B1 VL with S60T
B4: 08G07 (antibody, human IgG4, V domains shown)
VH: B1 VH with A33T, S57L, T58A, S59N, Q99S, E104D
VL: B1 VL with S30D
B5: MH4 (antibody, IgG4, V domains shown)
VH: B1 VH with A33T
VL: B1 VL
B6: 04F09 (antibody, IgG4, V domains shown)
VH: B1 VH with T28I, A33S, G55N, S57L, T58A, S59N, Y107I
VL: B1 VL with S30E, N34Q, E98D
B7: 09E04 (antibody, IgG4, V domains shown)
VH: B1 VH with T28I, A33T, S54N
VL: B1 VL with S30E, S95Y, K96G
B8: MH12 (antibody, IgG4, V domains shown)
VH: B1 VH
VL: B1 VL with N34Q, S60T, S95Y, K96G, E98S
B9: MH11 (antibody, IgG4, V domains shown)
VH: B1 VH
VL: B1 VL with N34Q, S60T, K96G, E98S

T3 sequence (P08581 25-1390 limits assumed): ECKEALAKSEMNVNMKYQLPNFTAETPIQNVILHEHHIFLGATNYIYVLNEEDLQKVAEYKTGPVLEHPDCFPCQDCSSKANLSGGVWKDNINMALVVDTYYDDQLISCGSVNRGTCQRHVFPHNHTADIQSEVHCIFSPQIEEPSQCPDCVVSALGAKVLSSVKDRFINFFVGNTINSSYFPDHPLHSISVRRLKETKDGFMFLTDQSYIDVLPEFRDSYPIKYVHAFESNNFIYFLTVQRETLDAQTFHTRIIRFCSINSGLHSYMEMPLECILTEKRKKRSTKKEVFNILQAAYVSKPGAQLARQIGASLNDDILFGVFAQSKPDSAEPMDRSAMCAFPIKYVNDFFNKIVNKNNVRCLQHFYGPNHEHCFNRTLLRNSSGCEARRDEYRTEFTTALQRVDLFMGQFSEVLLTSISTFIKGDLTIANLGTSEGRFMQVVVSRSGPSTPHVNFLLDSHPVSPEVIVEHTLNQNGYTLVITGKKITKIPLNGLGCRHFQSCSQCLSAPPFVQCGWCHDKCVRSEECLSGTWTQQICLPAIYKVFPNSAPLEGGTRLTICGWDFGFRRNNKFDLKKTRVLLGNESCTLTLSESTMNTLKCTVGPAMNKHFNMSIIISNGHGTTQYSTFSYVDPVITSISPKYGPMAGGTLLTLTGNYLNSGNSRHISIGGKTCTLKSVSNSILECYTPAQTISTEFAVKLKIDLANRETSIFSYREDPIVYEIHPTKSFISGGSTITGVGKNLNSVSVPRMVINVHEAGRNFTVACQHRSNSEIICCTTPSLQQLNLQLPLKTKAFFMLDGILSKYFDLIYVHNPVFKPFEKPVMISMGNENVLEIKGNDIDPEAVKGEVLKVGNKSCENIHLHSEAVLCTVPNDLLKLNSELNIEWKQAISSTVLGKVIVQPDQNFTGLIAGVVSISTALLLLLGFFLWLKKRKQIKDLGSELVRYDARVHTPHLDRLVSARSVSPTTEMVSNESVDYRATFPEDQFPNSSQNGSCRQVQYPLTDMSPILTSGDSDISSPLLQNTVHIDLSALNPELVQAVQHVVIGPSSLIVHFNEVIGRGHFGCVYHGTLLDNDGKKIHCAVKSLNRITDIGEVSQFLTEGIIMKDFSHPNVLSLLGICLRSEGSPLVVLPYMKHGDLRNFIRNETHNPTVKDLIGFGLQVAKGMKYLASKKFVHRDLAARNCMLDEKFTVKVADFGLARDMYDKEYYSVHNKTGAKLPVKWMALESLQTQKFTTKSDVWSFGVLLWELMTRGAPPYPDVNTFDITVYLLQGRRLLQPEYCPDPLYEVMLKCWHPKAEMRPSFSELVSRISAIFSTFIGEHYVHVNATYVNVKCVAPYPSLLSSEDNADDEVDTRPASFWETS

In the first assay the target is T1, human C-MET His tagged, monomeric (human, UniProt P08581 25-932).
T1 construct: also called monomeric human C-MET; biotinylated human C-MET-His
T1 sequence (P08581 25-932): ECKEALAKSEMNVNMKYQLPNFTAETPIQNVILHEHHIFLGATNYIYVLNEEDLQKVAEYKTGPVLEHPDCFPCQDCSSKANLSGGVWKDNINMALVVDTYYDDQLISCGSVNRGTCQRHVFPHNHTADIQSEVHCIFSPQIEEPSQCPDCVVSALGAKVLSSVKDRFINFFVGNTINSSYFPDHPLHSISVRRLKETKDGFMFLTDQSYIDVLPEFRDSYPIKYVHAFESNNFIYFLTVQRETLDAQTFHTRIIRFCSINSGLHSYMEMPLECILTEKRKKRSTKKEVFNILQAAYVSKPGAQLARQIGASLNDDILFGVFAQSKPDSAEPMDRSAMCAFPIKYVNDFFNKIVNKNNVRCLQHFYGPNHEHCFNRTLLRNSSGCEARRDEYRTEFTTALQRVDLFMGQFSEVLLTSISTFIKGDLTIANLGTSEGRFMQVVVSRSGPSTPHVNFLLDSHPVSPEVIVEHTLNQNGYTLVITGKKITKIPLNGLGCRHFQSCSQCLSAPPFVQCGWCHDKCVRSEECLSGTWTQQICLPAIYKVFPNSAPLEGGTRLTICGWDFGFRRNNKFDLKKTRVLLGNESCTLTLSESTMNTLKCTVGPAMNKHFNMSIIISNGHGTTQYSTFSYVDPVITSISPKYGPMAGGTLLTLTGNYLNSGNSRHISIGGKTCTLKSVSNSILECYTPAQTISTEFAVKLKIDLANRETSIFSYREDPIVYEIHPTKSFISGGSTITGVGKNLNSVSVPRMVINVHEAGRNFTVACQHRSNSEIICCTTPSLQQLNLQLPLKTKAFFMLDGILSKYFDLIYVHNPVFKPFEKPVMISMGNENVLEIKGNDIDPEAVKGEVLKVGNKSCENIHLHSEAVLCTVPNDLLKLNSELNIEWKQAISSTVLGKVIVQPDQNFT
Description: SPR Biacore. On the procedure: (§1) Affinity (KD) of purified IgGs was determined via SPR with antigen in-solution on a Biacore® 3000 (GE). A mouse anti-human antibody (CH1 specific) was immobilized on a CM5 Sensor Chip to a level of 2000 RU in acetate buffer at pH 4.5 using amine coupling following the Wizard instructions for two channels. One channel was used for background signal correction. The standard running buffer HBS-EP pH 7.4 was used. Regeneration was performed with a single injection of 10 μl of 10 mM Glycine at pH 1.5 at 20 μl/minute. IgG samples were injected for 2 minutes at 50 nM at 30 μl/min followed by and off-rate of 60 seconds. The monomeric antigen (human C-MET His tagged or cynomolgus monkey C-MET His tag) was injected in two fold serial dilutions from 100 nM down to 6 nM, for 2 minutes at 30 μl/min followed by an off-rate of 300 seconds. The obtained sensorgrams were analysed using the Biacore® 3000 evaluation (BIAevaluation) software. The KD was calculated by simultaneous fitting of the association and dissociation phases to a 1:1 Langmuir binding model.
Turning to B1, the “fold reduction in binding affinity against MH4” value is roughly 2 fold.

The target in the next assay is T2, Insulin.
T2 construct: Coated surface of the polyreactivity (development risk) ELISA
T2 sequence (P01308 25-54, chain 1 of 2): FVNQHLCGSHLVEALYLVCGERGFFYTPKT
T2 sequence (P01308 90-110, chain 2 of 2): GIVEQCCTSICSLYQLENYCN
In words: polyreactivity ELISA on insulin. Also noted: scale not given here. For orientation: An ELISA detects its analyte on a solid surface through an enzyme-linked reagent.
B2 yielded a reactivity score of 1.

B3 came in with a reactivity score of 1.

As to B4, the reactivity score was 1.

Another assay concerns the target T3, human C-MET on stably transfected CHO-K1 cells (human, UniProt P08581 25-1390).
T3 construct: also called hucMET; human C-MET+ CHO-K1 cells
Description: flow cytometry, C-MET CHO-K1 cells. On the procedure: (§2) Purified IgGs were tested in FACs for binding to human and cyno C-MET expressed on CHO-K1 stable cell lines and CHO-K1 wild-type cells. The IgG samples were titrated in three-fold serial dilutions starting at 500 nM to 0.08 nM. Binding of IgGs was detected with a mouse anti-human IgG conjugated to FITC. Results were analyzed by examining the Mean Fluorescence Intensity (MFI) of 10000 cells per sample in the BL-1 channel detector of a flow cytometer (Attune™ NxT Acoustic Focusing Cytometer, Invitrogen/ThermoFisher Scientific).
(§3) Antibodies to C-MET were analysed for concentration-dependent binding at the cell surface via flow cytometry. CHO-K1 cells were stably transfected with either human or cyno C-MET full-length cDNAs. Anti-C-MET IgGs and an isotype control IgG4(S228P) were then all tested in IgG4(S228P) format, over a concentration range of 500-0.08 nM for binding to human (FIG. 5A) and cyno (FIG. 5B) CHO-K1 cells.
With B5, the “maximum MFI, fold over Isotype IgG4 background” value (from here on “maximum MFI, fold”) is greater than 10 fold.

On to B6, for which the “maximum MFI, fold” value was greater than 10 fold.

B7: the “maximum MFI, fold” value was greater than 10 fold.

Turning to B2, the “maximum MFI, fold” value is greater than 10 fold.

For the molecule B3, the “maximum MFI, fold” value is greater than 10 fold.

As for B8, the “maximum MFI, fold” value is greater than 10 fold.

For B1, the “maximum MFI, fold” value was greater than 10 fold.

Regarding B4, the “maximum MFI, fold” value is greater than 10 fold.

Regarding B9, the “maximum MFI, fold” value was greater than 10 fold.

The target in a further assay is T4, cynomolgus monkey C-MET on stably transfected CHO-K1 cells (cynomolgus monkey, UniProt A0M8R7 25-1381 (Papio anubis entry)).
T4 construct: also called cycMET; cyno C-MET+ CHO-K1 cells
T4 sequence (A0M8R7 25-1381 S170N/I621T limits assumed): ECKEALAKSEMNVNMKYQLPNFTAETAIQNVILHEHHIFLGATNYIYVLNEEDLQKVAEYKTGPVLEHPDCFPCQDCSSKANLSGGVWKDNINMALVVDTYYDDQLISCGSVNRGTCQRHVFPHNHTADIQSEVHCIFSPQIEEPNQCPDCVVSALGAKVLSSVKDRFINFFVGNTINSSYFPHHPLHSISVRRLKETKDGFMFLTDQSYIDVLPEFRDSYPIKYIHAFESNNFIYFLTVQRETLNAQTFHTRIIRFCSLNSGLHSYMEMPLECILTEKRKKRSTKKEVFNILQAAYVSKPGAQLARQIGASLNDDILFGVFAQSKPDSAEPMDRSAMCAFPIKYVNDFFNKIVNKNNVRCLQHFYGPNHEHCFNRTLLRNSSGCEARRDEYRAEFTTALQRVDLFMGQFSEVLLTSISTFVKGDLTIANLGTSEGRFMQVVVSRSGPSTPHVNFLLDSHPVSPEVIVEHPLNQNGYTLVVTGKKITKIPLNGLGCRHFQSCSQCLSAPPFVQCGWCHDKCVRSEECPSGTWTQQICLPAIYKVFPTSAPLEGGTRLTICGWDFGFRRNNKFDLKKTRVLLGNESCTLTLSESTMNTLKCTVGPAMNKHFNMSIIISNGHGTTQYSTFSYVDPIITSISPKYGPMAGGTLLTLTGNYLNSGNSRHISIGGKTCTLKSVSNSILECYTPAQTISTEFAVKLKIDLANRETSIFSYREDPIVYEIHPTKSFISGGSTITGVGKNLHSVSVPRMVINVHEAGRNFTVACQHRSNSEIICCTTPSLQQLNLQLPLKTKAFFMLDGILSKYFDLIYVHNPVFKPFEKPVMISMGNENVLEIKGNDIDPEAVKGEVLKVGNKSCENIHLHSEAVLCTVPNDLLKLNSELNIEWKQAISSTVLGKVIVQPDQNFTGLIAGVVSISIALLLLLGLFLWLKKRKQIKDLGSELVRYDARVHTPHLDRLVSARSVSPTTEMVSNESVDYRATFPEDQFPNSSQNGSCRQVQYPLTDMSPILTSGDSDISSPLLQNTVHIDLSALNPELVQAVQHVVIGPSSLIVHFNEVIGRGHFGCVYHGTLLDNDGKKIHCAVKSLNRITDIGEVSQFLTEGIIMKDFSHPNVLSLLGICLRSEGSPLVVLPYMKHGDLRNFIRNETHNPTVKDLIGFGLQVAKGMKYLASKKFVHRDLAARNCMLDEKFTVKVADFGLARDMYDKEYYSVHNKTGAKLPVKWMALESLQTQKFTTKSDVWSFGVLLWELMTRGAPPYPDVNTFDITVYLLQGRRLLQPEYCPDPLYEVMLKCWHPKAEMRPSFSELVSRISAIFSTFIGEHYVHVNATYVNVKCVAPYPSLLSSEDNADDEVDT
In words: flow cytometry, C-MET CHO-K1 cells. The procedure:
as §2, §3
In general terms: In flow cytometry, cells or beads pass a laser one at a time.
As for B5, the “maximum MFI, fold” value was greater than 10 fold.

As for B6, the “maximum MFI, fold” value was greater than 10 fold.

In the case of B7, the “maximum MFI, fold” value was greater than 10 fold.

Take B2: the “maximum MFI, fold” value was greater than 10 fold.

Take B3: the “maximum MFI, fold” value was greater than 10 fold.

Regarding B8, the “maximum MFI, fold” value is greater than 10 fold.

In the case of B1, the “maximum MFI, fold” value was greater than 10 fold.

With B4, the “maximum MFI, fold” value is greater than 10 fold.

With B9, the “maximum MFI, fold” value is greater than 10 fold.

The target in another assay is T3, human C-MET on stably transfected …. In words: flow cytometry, C-MET CHO-K1 cells. This is another data set of the same source. The procedure: as §2
With B5, the EC50 (commonly the midpoint of the concentration-response curve) was found to be 1.72 nM.

In turn, B6 displayed an EC50 of 12.4 nM.

Turning to B7, a half-maximal effect (EC50) was put at 2.9 nM.

In turn, B2 came in with an EC50 of 1.14 nM.

For the molecule B8, a half-maximal effect (EC50) was put at 1.25 nM.

For B1, a half-maximal effect (EC50) was put at 2.14 nM.

B4: a half-maximal effect (EC50) was put at 4.19 nM.

Regarding B9, the midpoint of the response, the EC50, lay at 1.68 nM.

For the next assay, the target named is T4, cynomolgus monkey C-MET on stably …. Description: flow cytometry, C-MET CHO-K1 cells. The source holds these as a separate data set. The procedure:
as §2
For B5, the EC50 stood at 0.48 nM.

As for B6, the EC50 worked out at 0.64 nM.

With B7, the EC50 stood at 1.11 nM.

Turning to B2, the EC50 turned out to be 0.54 nM.

B8 gave an EC50 of 0.51 nM.

In turn, B1 yielded an EC50 of 0.46 nM.

Regarding B4, the EC50 was 0.68 nM.

In turn, B9 registered an EC50 of 0.69 nM.

The next assay deals with T5, cynomolgus monkey C-MET His tag, monomeric (cynomolgus monkey, UniProt A0M8R7 25-932 (Papio anubis entry)).
T5 construct: also called monomeric cyno C-MET; cyCMET
T5 sequence (A0M8R7 25-932 S170N/I621T): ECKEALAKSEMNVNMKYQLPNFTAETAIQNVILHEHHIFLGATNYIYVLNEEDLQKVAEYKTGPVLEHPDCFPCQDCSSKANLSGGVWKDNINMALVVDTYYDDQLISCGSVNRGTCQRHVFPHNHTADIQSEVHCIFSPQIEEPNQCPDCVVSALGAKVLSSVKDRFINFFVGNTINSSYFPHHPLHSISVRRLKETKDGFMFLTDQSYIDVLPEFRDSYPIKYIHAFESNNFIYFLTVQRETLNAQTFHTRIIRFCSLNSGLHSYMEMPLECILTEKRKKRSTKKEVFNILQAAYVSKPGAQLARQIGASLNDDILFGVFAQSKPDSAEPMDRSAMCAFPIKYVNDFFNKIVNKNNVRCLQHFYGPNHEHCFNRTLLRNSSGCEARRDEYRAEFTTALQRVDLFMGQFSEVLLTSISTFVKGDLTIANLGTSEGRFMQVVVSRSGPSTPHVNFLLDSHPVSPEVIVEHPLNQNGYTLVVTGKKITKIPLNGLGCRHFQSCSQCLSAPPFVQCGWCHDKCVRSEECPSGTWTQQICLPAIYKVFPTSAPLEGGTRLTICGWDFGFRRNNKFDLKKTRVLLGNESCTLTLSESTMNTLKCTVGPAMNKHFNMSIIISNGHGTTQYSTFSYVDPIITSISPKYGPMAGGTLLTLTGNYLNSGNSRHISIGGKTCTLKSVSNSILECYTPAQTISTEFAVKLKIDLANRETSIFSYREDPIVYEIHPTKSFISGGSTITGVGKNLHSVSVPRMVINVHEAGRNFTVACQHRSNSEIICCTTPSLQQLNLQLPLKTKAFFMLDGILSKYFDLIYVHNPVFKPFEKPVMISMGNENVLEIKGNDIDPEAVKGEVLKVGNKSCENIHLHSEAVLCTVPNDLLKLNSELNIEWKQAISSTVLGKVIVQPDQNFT
Description: SPR Biacore, monomeric cyno against monomeric human C-MET. On the procedure: as §1
Background: SPR reads the build-up and loss of mass on a sensor chip optically.
On to B5, for which the “cyno C-MET affinity, fold of the human C-MET affinity” value (from here on “cyno C-MET affinity, fold”) is no more than 2 fold.

Regarding B6, the “cyno C-MET affinity, fold” value was no more than 2 fold.

As to B7, the “cyno C-MET affinity, fold” value was no more than 2 fold.

For B2, the “cyno C-MET affinity, fold” value is no more than 2 fold.

B4: the “cyno C-MET affinity, fold” value is no more than 2 fold.

A further assay deals with T1, human C-MET His tagged, monomeric. In words: SPR Biacore, IgG captured, monomeric C-MET-His analyte. The procedure:
as §1
Take B5: the affinity, expressed as Kd, was 0.28 nM; the koff – broadly, the first-order rate constant of dissociation – came out at 2.5e-05 s⁻¹; the kon (commonly a measure of how fast the partners come together) was 87000 M⁻¹ s⁻¹.

Turning to B6, the Kd – broadly, the concentration at which binding is half-saturated – amounted to 0.13 nM; the koff was found to be 1.8e-05 s⁻¹; the kon worked out at 140000 M⁻¹ s⁻¹.

In turn, B7 registered a Kd of 0.18 nM, a koff of 1.6e-05 s⁻¹ and a kon of 85000 M⁻¹ s⁻¹.

Molecule B2 gave a dissociation constant Kd of 0.3 nM, a koff of 2.9e-05 s⁻¹ and a kon of 98000 M⁻¹ s⁻¹.

The molecule B3 returned a Kd of 1.54 nM, a koff of 0.000151 s⁻¹ and a kon of 97900 M⁻¹ s⁻¹.

B8 yielded a Kd of 6.5 nM, a koff of 0.00037 s⁻¹ and a kon of 56000 M⁻¹ s⁻¹.

B1 had a Kd of 0.63 nM, a koff of 4.4e-05 s⁻¹ and a kon of 71000 M⁻¹ s⁻¹.

In the case of B4, the Kd turned out to be 0.12 nM, the koff was 7.54e-06 s⁻¹ and the kon was determined as 63400 M⁻¹ s⁻¹.

In the case of B9, binding was put at a Kd of 2.6 nM, the koff amounted to 0.00016 s⁻¹ and the kon was found to be 62000 M⁻¹ s⁻¹.

The target in another assay is T5, cynomolgus monkey C-MET His tag, …. The assay is described as above. On the procedure: as §1
Regarding B5, binding was characterised by a dissociation constant (Kd) of 0.19 nM, the koff came to 4.9e-05 s⁻¹ and the kon worked out at 260000 M⁻¹ s⁻¹.

Molecule B6 yielded a Kd of 0.19 nM, a koff of 5.6e-05 s⁻¹ and a kon of 290000 M⁻¹ s⁻¹.

As for B7, the Kd is 0.39 nM, the koff worked out at 6.4e-05 s⁻¹ and the kon was 170000 M⁻¹ s⁻¹.

B2: the Kd is 0.19 nM, the koff is 5.2e-05 s⁻¹ and the kon amounted to 270000 M⁻¹ s⁻¹.

B3 yielded a dissociation constant (Kd) of 1.1 nM, a koff of 0.000198 s⁻¹ and a kon of 181000 M⁻¹ s⁻¹.

B8 gave a Kd of 4 nM, a koff of 0.00043 s⁻¹ and a kon of 110000 M⁻¹ s⁻¹.

In turn, B1 gave a Kd of 0.2 nM, a koff of 3.6e-05 s⁻¹ and a kon of 180000 M⁻¹ s⁻¹.

Turning to B4, the affinity, expressed as Kd, was 0.24 nM; the koff is 2.4e-05 s⁻¹; the kon was 100000 M⁻¹ s⁻¹.

With B9, the affinity, expressed as Kd, was 1.2 nM; the koff is 0.00018 s⁻¹; the kon turned out to be 150000 M⁻¹ s⁻¹.
